Measurements as given in patent publication US20180148477A1 (published 2018).
Bridge positions count the residues as written; N and C are the ends. Square brackets hold non-standard residues; d marks the D form. Ends that are not written are not given here. 1Nal = N[C@@H](Cc1cccc2ccccc12)C(=O)O; 2Nal = N[C@@H](Cc1ccc2ccccc2c1)C(=O)O; d1Nal = N[C@H](Cc1cccc2ccccc12)C(=O)O; d2Nal = N[C@H](Cc1ccc2ccccc2c1)C(=O)O; NMeR = CN[C@@H](CCCNC(=N)N)C(=O)O; hPhe = N[C@@H](CCc1ccccc1)C(=O)O; Pen = CC(C)(S)[C@H](N)C(=O)O; dNMeK = CN[C@H](CCCCN)C(=O)O; hLeu = CC(C)CC[C@H](N)C(=O)O; Dab = NCC[C@H](N)C(=O)O; Dap = NC[C@H](N)C(=O)O

B1: SEQ ID NO: 161 (peptide)
peptide: Ac-[Pen][NMeR]SD[hLeu]L[Pen][2Nal][dE]-NH2
modifications: disulfide 1-7
SMILES: CC(=O)N[C@@H]1C(=O)N(C)[C@@H](CCCNC(=N)N)C(=O)N[C@@H](CO)C(=O)N[C@@H](CC(=O)O)C(=O)N[C@@H](CCC(C)C)C(=O)N[C@@H](CC(C)C)C(=O)N[C@H](C(=O)N[C@@H](Cc2ccc3ccccc3c2)C(=O)N[C@H](CCC(=O)O)C(N)=O)C(C)(C)SSC1(C)C
B2: SEQ ID NO: 164 (peptide)
peptide: Ac-[Pen][NMeR]SDTY[Pen][2Nal][dE]-NH2
modifications: disulfide 1-7
SMILES: CC(=O)N[C@@H]1C(=O)N(C)[C@@H](CCCNC(=N)N)C(=O)N[C@@H](CO)C(=O)N[C@@H](CC(=O)O)C(=O)N[C@@H]([C@@H](C)O)C(=O)N[C@@H](Cc2ccc(O)cc2)C(=O)N[C@H](C(=O)N[C@@H](Cc2ccc3ccccc3c2)C(=O)N[C@H](CCC(=O)O)C(N)=O)C(C)(C)SSC1(C)C
B3: SEQ ID NO: 160 (peptide)
peptide: Ac-[Pen][NMeR]SDIL[Pen][2Nal][dE]-NH2
modifications: disulfide 1-7
SMILES: CC[C@H](C)[C@@H]1NC(=O)[C@H](CC(=O)O)NC(=O)[C@H](CO)NC(=O)[C@H](CCCNC(=N)N)N(C)C(=O)[C@@H](NC(C)=O)C(C)(C)SSC(C)(C)[C@@H](C(=O)N[C@@H](Cc2ccc3ccccc3c2)C(=O)N[C@H](CCC(=O)O)C(N)=O)NC(=O)[C@H](CC(C)C)NC1=O
B4: SEQ ID NO: 163 (peptide)
peptide: Ac-[Pen][NMeR]SDTQ[Pen][2Nal][dE]-NH2
modifications: disulfide 1-7
SMILES: CC(=O)N[C@@H]1C(=O)N(C)[C@@H](CCCNC(=N)N)C(=O)N[C@@H](CO)C(=O)N[C@@H](CC(=O)O)C(=O)N[C@@H]([C@@H](C)O)C(=O)N[C@@H](CCC(N)=O)C(=O)N[C@H](C(=O)N[C@@H](Cc2ccc3ccccc3c2)C(=O)N[C@H](CCC(=O)O)C(N)=O)C(C)(C)SSC1(C)C
B5: SEQ ID NO: 61 (peptide)
peptide: Ac-[Pen][NMeR]SDTL[Pen]WE[Dab]-NH2
modifications: disulfide 1-7
SMILES: CC(=O)N[C@@H]1C(=O)N(C)[C@@H](CCCNC(=N)N)C(=O)N[C@@H](CO)C(=O)N[C@@H](CC(=O)O)C(=O)N[C@@H]([C@@H](C)O)C(=O)N[C@@H](CC(C)C)C(=O)N[C@H](C(=O)N[C@@H](Cc2c[nH]c3ccccc23)C(=O)N[C@@H](CCC(=O)O)C(=O)N[C@@H](CCN)C(N)=O)C(C)(C)SSC1(C)C
B6: SEQ ID NO: 56 (peptide)
peptide: Ac-[Pen][NMeR]SDTL[Pen]W[dE][Dab]-NH2
modifications: disulfide 1-7
SMILES: CC(=O)N[C@@H]1C(=O)N(C)[C@@H](CCCNC(=N)N)C(=O)N[C@@H](CO)C(=O)N[C@@H](CC(=O)O)C(=O)N[C@@H]([C@@H](C)O)C(=O)N[C@@H](CC(C)C)C(=O)N[C@H](C(=O)N[C@@H](Cc2c[nH]c3ccccc23)C(=O)N[C@H](CCC(=O)O)C(=O)N[C@@H](CCN)C(N)=O)C(C)(C)SSC1(C)C
B7: SEQ ID NO: 55 (peptide)
peptide: Ac-[Pen][NMeR]SDTL[Pen]W[dE][Dap]-NH2
modifications: disulfide 1-7
SMILES: CC(=O)N[C@@H]1C(=O)N(C)[C@@H](CCCNC(=N)N)C(=O)N[C@@H](CO)C(=O)N[C@@H](CC(=O)O)C(=O)N[C@@H]([C@@H](C)O)C(=O)N[C@@H](CC(C)C)C(=O)N[C@H](C(=O)N[C@@H](Cc2c[nH]c3ccccc23)C(=O)N[C@H](CCC(=O)O)C(=O)N[C@@H](CN)C(N)=O)C(C)(C)SSC1(C)C
B8: SEQ ID NO: 162 (peptide)
peptide: Ac-[Pen][NMeR]SDTF[Pen][2Nal][dE]-NH2
modifications: disulfide 1-7
SMILES: CC(=O)N[C@@H]1C(=O)N(C)[C@@H](CCCNC(=N)N)C(=O)N[C@@H](CO)C(=O)N[C@@H](CC(=O)O)C(=O)N[C@@H]([C@@H](C)O)C(=O)N[C@@H](Cc2ccccc2)C(=O)N[C@H](C(=O)N[C@@H](Cc2ccc3ccccc3c2)C(=O)N[C@H](CCC(=O)O)C(N)=O)C(C)(C)SSC1(C)C
B9: SEQ ID NO: 59 (peptide)
peptide: Ac-[Pen][NMeR]SDTL[Pen]WE[Dap]-NH2
modifications: disulfide 1-7
SMILES: CC(=O)N[C@@H]1C(=O)N(C)[C@@H](CCCNC(=N)N)C(=O)N[C@@H](CO)C(=O)N[C@@H](CC(=O)O)C(=O)N[C@@H]([C@@H](C)O)C(=O)N[C@@H](CC(C)C)C(=O)N[C@H](C(=O)N[C@@H](Cc2c[nH]c3ccccc23)C(=O)N[C@@H](CCC(=O)O)C(=O)N[C@@H](CN)C(N)=O)C(C)(C)SSC1(C)C
B10: SEQ ID NO: 88 (peptide)
peptide: Ac-[Pen][NMeR]SDTL[Pen][2Nal][dK]-NH2
modifications: disulfide 1-7
SMILES: CC(=O)N[C@@H]1C(=O)N(C)[C@@H](CCCNC(=N)N)C(=O)N[C@@H](CO)C(=O)N[C@@H](CC(=O)O)C(=O)N[C@@H]([C@@H](C)O)C(=O)N[C@@H](CC(C)C)C(=O)N[C@H](C(=O)N[C@@H](Cc2ccc3ccccc3c2)C(=O)N[C@H](CCCCN)C(N)=O)C(C)(C)SSC1(C)C
B11: SEQ ID NO: 10 (peptide)
peptide: Ac-[Pen][NMeR]SDTL[Pen][d1Nal]E[dK]-NH2
modifications: disulfide 1-7
SMILES: CC(=O)N[C@@H]1C(=O)N(C)[C@@H](CCCNC(=N)N)C(=O)N[C@@H](CO)C(=O)N[C@@H](CC(=O)O)C(=O)N[C@@H]([C@@H](C)O)C(=O)N[C@@H](CC(C)C)C(=O)N[C@H](C(=O)N[C@H](Cc2cccc3ccccc23)C(=O)N[C@@H](CCC(=O)O)C(=O)N[C@H](CCCCN)C(N)=O)C(C)(C)SSC1(C)C
B12: SEQ ID NO: 11 (peptide)
peptide: Ac-[Pen][NMeR]SDTL[Pen][d2Nal]E[dK]-NH2
modifications: disulfide 1-7
SMILES: CC(=O)N[C@@H]1C(=O)N(C)[C@@H](CCCNC(=N)N)C(=O)N[C@@H](CO)C(=O)N[C@@H](CC(=O)O)C(=O)N[C@@H]([C@@H](C)O)C(=O)N[C@@H](CC(C)C)C(=O)N[C@H](C(=O)N[C@H](Cc2ccc3ccccc3c2)C(=O)N[C@@H](CCC(=O)O)C(=O)N[C@H](CCCCN)C(N)=O)C(C)(C)SSC1(C)C
B13: SEQ ID NO: 50 (peptide)
peptide: Ac-[Pen][NMeR]SDTL[Pen][2Nal][hPhe][dK]-NH2
modifications: disulfide 1-7
SMILES: CC(=O)N[C@@H]1C(=O)N(C)[C@@H](CCCNC(=N)N)C(=O)N[C@@H](CO)C(=O)N[C@@H](CC(=O)O)C(=O)N[C@@H]([C@@H](C)O)C(=O)N[C@@H](CC(C)C)C(=O)N[C@H](C(=O)N[C@@H](Cc2ccc3ccccc3c2)C(=O)N[C@@H](CCc2ccccc2)C(=O)N[C@H](CCCCN)C(N)=O)C(C)(C)SSC1(C)C
B14: SEQ ID NO: 8 (peptide)
peptide: Ac-[Pen][NMeR]SDTL[Pen][1Nal][dE][dK]-NH2
modifications: disulfide 1-7
SMILES: CC(=O)N[C@@H]1C(=O)N(C)[C@@H](CCCNC(=N)N)C(=O)N[C@@H](CO)C(=O)N[C@@H](CC(=O)O)C(=O)N[C@@H]([C@@H](C)O)C(=O)N[C@@H](CC(C)C)C(=O)N[C@H](C(=O)N[C@@H](Cc2cccc3ccccc23)C(=O)N[C@H](CCC(=O)O)C(=O)N[C@H](CCCCN)C(N)=O)C(C)(C)SSC1(C)C

These binders were tested against human α4β7 integrin on cells (human) (UniProt P13612) (assay: RPMI8866 adhesion to MAdCAM-1).

| IC50 | Binder |
| --- | --- |
| > 1000 nM | B1 |
| > 1000 nM | Ac-[Pen][NMeR]SDTL[Pen]WE[Dap] (disulfide 1-7; also: C-terminus written Dap-Ac, acetyl place unclear) [SEQ ID NO: 60] |
| > 25 nM | Ac-[Pen][NMeR]SDTL[Pen][2Nal][dY][dK]-NH2 (disulfide 1-7; also: dimer via DIG) [SEQ ID NO: 27] |
| > 1000 nM | B2 |
| > 1000 nM | B3 |
| > 1000 nM | B4 |
| > 1000 nM | B5 |
| > 500 nM | B6 |
| > 25 nM | Ac-[Pen][NMeR]SDTL[Pen][d1Nal]E[dK]-NH2 (disulfide 1-7; also: dimer via DIG) [SEQ ID NO: 34] |
| > 1000 nM | Ac-[Pen][NMeR]SDTL[Pen]W[dE][Dap] (disulfide 1-7; also: C-terminus written Dap-Ac, acetyl place unclear) [SEQ ID NO: 63] |
| > 100 nM | Ac-[Pen][NMeR]SDTL[Pen][d2Nal]E[dK]-NH2 (disulfide 1-7; also: dimer via DIG) [SEQ ID NO: 35] |
| > 100 nM | B7 |
| > 1000 nM | B8 |
| > 1000 nM | Ac-[Pen][NMeR]SDTL[Pen]W[dE][Dab] (disulfide 1-7; also: C-terminus written Dab-Ac, acetyl place unclear) [SEQ ID NO: 64] |
| > 10000 nM | B9 |
| > 1000 nM | Ac-[Pen][NMeR]SDTL[Pen]WE[Dab] (disulfide 1-7; also: C-terminus written Dab-Ac, acetyl place unclear) [SEQ ID NO: 62] |
| > 10 nM | Ac-[Pen][NMeR]SDTL[Pen][2Nal][dE][dNMeK]-NH2 (disulfide 1-7; also: dimer via DIG) [SEQ ID NO: 39] |

What follows are binders tested against rh integrin α4β7 (R&D Systems #5397-A30) (human) (UniProt P13612) (assay: competition ELISA vs MAdCAM-1).

| IC50 | Binder |
| --- | --- |
| > 10 nM | B10 |
| < 10 nM | Ac-[Pen][NMeR]SDTL[Pen][2Nal]E[dNMeK]-NH2 (disulfide 1-7 (inferred)) [SEQ ID NO: 15] |
| > 10 nM | B11 |
| > 25 nM | B12 |
| > 10 nM | B13 |
| > 25 nM | B14 |
| > 25 nM | Ac-[Pen][NMeR]SDTL[Pen][1Nal][dE][dNMeK]-NH2 (disulfide 1-7 (inferred)) [SEQ ID NO: 12] |
